Biological target: T1, HER2-ECD-His 단백질 (human, UniProt P04626 23-652)
T1 construct: extracellular domain; Origin and limits of the construct are not described; not shown: His tag
Assay: SPR; IgG captured on goat anti-human IgG; HER2-ECD-His as analyte

fold decrease of koff (kd) vs hz1E11 [fold] | fold improvement of affinity (KD) vs hz1E11 [fold] | Binder
8.4 | 20 | hz1E11-154 (IgG) (antibody, V domains shown, heavy variable region same as hz1E11) VH: EVQLVESGGGLVQPGGSLRLSCAASGFTFSSYTMSWVRQAPGKGLEWVAYISNGGGSTYYPDTVKGRFTISRDNAKNSLYLQMNSLRAEDTAVYYCARHLGGTASFDYWGQGTLVTVSS VL: DIQMTQSPSSLSASVGDRVTITCLASQTIGTWLAWYQQKPGKAPKLLIYVATSLADGVPSRFSGSGSGTDFTLTISSLQPEDFATYYCQQTAFSPWTFGQGTKVEIK
8.4 | 15 | hz1E11-133 (IgG) (antibody, V domains shown, heavy variable region same as hz1E11) VH: EVQLVESGGGLVQPGGSLRLSCAASGFTFSSYTMSWVRQAPGKGLEWVAYISNGGGSTYYPDTVKGRFTISRDNAKNSLYLQMNSLRAEDTAVYYCARHLGGTASFDYWGQGTLVTVSS VL: DIQMTQSPSSLSASVGDRVTITCLASQTIGTWLAWYQQKPGKAPKLLIYVATSLADGVPSRFSGSGSGTDFTLTISSLQPEDFATYYCQQNAYAPWTFGQGTKVEIK

Biological target: T1, HER2-ECD-His 단백질
Assay: SPR (Biacore 3000); HER2-ECD-His amine-coupled on CM5; periplasmic extract as analyte

koff 감소 정도 (Fold) vs hz1E11 [fold] | Binder
7.4 | M1-L-A1-3-1C3 (hz1E11-3), periplasmic extract (antibody, V domains shown, Clone as expressed in bacteria, periplasmic extract; LCDR3 DQMYSTPWT) VH: EVQLVESGGGLVQPGGSLRLSCAASGFTFSSYTMSWVRQAPGKGLEWVAYISNGGGSTYYPDTVKGRFTISRDNAKNSLYLQMNSLRAEDTAVYYCARHLGGTASFDYWGQGTLVTVSS VL: DIQMTQSPSSLSASVGDRVTITCLASQTIGTWLAWYQQKPGKAPKLLIYVATSLADGVPSRFSGSGSGTDFTLTISSLQPEDFATYYCDQMYSTPWTFGQGTKVEIK
0.7 | M3-LH-A1-1-1H1 (antibody, V domains shown) VH: EVQLVESGGGLVQPGGSLRLSCAASGFTFSSYTMSWVRQAPGKGLEWVAYISNGGGSTYYPDTVKGRFTISRDNAKNSLYLQMNSLRAEDTAVYYCARNYGGTASFDYWGQGTLVTVSS VL: DIQMTQSPSSLSASVGDRVTITCLASQTIGTWLAWYQQKPGKAPKLLIYVATSLADGVPSRFSGSGSGTDFTLTISSLQPEDFATYYCQQNFIAPWTFGQGTKVEIK
3.6 | M3-LH-A3-3-2A5 (antibody, V domains shown) VH: EVQLVESGGGLVQPGGSLRLSCAASGFTFSSYTMSWVRQAPGKGLEWVAYISNGGGSTYYPDTVKGRFTISRDNAKNSLYLQMNSLRAEDTAVYYCARHWGGTASFDYWGQGTLVTVSS VL: DIQMTQSPSSLSASVGDRVTITCLASQTIGTWLAWYQQKPGKAPKLLIYVATSLADGVPSRFSGSGSGTDFTLTISSLQPEDFATYYCQQMFSTPWTFGQGTKVEIK
5.8 | M1-LH-A3-3-1A6 (antibody, V domains shown) VH: EVQLVESGGGLVQPGGSLRLSCAASGFTFSSYTMSWVRQAPGKGLEWVAYISNGGGSTYYPDTVKGRFTISRDNAKNSLYLQMNSLRAEDTAVYYCARNYGGTASFDYWGQGTLVTVSS VL: DIQMTQSPSSLSASVGDRVTITCLASQTIGTWLAWYQQKPGKAPKLLIYVATSLADGVPSRFSGSGSGTDFTLTISSLQPEDFATYYCQQLVRTPWTFGQGTKVEIK
3.2 | M3-LH-A1-2-2F4 (antibody, V domains shown) VH: EVQLVESGGGLVQPGGSLRLSCAASGFTFSSYTMSWVRQAPGKGLEWVAYISNGGGSTYYPDTVKGRFTISRDNAKNSLYLQMNSLRAEDTAVYYCARNLGGTASFDYWGQGTLVTVSS VL: DIQMTQSPSSLSASVGDRVTITCLASQTIGTWLAWYQQKPGKAPKLLIYVATSLADGVPSRFSGSGSGTDFTLTISSLQPEDFATYYCQQLVRIPWTFGQGTKVEIK
2 | M3-L-A1-3-2C2 (antibody, V domains shown, hz1E11 variant, periplasmic extract; substitutions derived from the printed CDR3 against hz1E11) VH: EVQLVESGGGLVQPGGSLRLSCAASGFTFSSYTMSWVRQAPGKGLEWVAYISNGGGSTYYPDTVKGRFTISRDNAKNSLYLQMNSLRAEDTAVYYCARHLGGTASFDYWGQGTLVTVSS VL: DIQMTQSPSSLSASVGDRVTITCLASQTIGTWLAWYQQKPGKAPKLLIYVATSLADGVPSRFSGSGSGTDFTLTISSLQPEDFATYYCQQLGFIPWTFGQGTKVEIK
9.7 | M3-L-A1-3-1F11 (hz1E11-154), periplasmic extract (antibody, V domains shown, Clone as expressed in bacteria, periplasmic extract; LCDR3 QQTAFSPWT) VH: EVQLVESGGGLVQPGGSLRLSCAASGFTFSSYTMSWVRQAPGKGLEWVAYISNGGGSTYYPDTVKGRFTISRDNAKNSLYLQMNSLRAEDTAVYYCARHLGGTASFDYWGQGTLVTVSS VL: DIQMTQSPSSLSASVGDRVTITCLASQTIGTWLAWYQQKPGKAPKLLIYVATSLADGVPSRFSGSGSGTDFTLTISSLQPEDFATYYCQQTAFSPWTFGQGTKVEIK
4.4 | M3-LH-A3-3-2F1 (antibody, V domains shown, substitutions derived from the printed CDR3) VH: EVQLVESGGGLVQPGGSLRLSCAASGFTFSSYTMSWVRQAPGKGLEWVAYISNGGGSTYYPDTVKGRFTISRDNAKNSLYLQMNSLRAEDTAVYYCARHLGGTASFDYWGQGTLVTVSS VL: DIQMTQSPSSLSASVGDRVTITCLASQTIGTWLAWYQQKPGKAPKLLIYVATSLADGVPSRFSGSGSGTDFTLTISSLQPEDFATYYCQQNAYNPWTFGQGTKVEIK
30.4 | M3-L-A1-3-1A12 (hz1E11-133), periplasmic extract (antibody, V domains shown, Clone as expressed in bacteria (IPTG), periplasmic extract; LCDR3 QQNAYAPWT) VH: EVQLVESGGGLVQPGGSLRLSCAASGFTFSSYTMSWVRQAPGKGLEWVAYISNGGGSTYYPDTVKGRFTISRDNAKNSLYLQMNSLRAEDTAVYYCARHLGGTASFDYWGQGTLVTVSS VL: DIQMTQSPSSLSASVGDRVTITCLASQTIGTWLAWYQQKPGKAPKLLIYVATSLADGVPSRFSGSGSGTDFTLTISSLQPEDFATYYCQQNAYAPWTFGQGTKVEIK
5.9 | M3-L-A3-4-2E8 (antibody, V domains shown, hz1E11 variant, periplasmic extract; substitutions derived from the printed CDR3 against hz1E11) VH: EVQLVESGGGLVQPGGSLRLSCAASGFTFSSYTMSWVRQAPGKGLEWVAYISNGGGSTYYPDTVKGRFTISRDNAKNSLYLQMNSLRAEDTAVYYCARHLGGTASFDYWGQGTLVTVSS VL: DIQMTQSPSSLSASVGDRVTITCLASQTIGTWLAWYQQKPGKAPKLLIYVATSLADGVPSRFSGSGSGTDFTLTISSLQPEDFATYYCQQIAYVPWTFGQGTKVEIK

Reference: patent KR20160022857A (dated 2016)
